Target: Full-length human TIGIT on CHO cells overexpressing TIGIT (human) (UniProt Q495A1)
Assay: FACS blocking assay on TIGIT-CHO cells; competitor CF633-labeled CD155-Fc at 2 ug/ml

Sequence of Full-length human TIGIT on CHO cells overexpressing TIGIT (human) (Q495A1 22-244 limits assumed): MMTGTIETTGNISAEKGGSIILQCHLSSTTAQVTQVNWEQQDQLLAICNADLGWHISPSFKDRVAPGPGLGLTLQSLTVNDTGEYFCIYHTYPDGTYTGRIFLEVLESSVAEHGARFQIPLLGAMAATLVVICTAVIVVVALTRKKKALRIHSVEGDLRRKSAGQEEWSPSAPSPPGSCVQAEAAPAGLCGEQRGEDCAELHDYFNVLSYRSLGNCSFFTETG

Question: How did the IC50 turn out when human IgG4 antibody (hIgG4) was run?
Answer: > 10 µM

— patent US20200255516A1
